Experimental findings from doi:10.1101/2022.08.25.505150 (bioRxiv, 2022) are described below.

In series [1] the target is 6His-PilC (Streptococcus sanguinis 2908). The experiment in a line: ITC. For orientation: In ITC the heat of successive injections is recorded.
Series [2] shares this target. The experiment in a line: SEC-MALS.
The series “SEC-MALS” deals with the molecule itself. Briefly: SEC-MALS. A general note: SEC sorts molecules by how far they enter the pores of the column.

A word on the Kd: it is the concentration at which binding is half-saturated. Lower therefore signals higher affinity. The term stoichiometry N denotes the number of molecules, sites or subunits per partner or assembly. Molecule “6His-PilA (from UniProt A0A0B7GNW3 33-164) (domain or fragment)” displayed a Kd in series [1] of 0.0238 µM. Besides, in series [2], the stoichiometry N is 1.

Take “PilA_(T95A) (from UniProt A0A0B7GNW3 33-164) (domain or fragment)”: in series [1], the % of the wild-type binding (KD ratio to the WT) came to 38.3%.

B1: 6His-PilA (domain or fragment, Streptococcus sanguinis 2908, UniProt A0A0B7GNW3 33-164, looked up)
chain: DTGQSQTQRMYNYLKAKYTATSGTQLAWGAYLDPVDGNPSSVYAEFDERAHNVDPSTEPIKSTHTFKDGSVAEIEMNGQLVDGLTGPENYNITIKSKSKLAGSNDYYEHIVTFNFDTKGIRSEEGHLRSAQK
As to B1, the “stoichiometry N” value in the series “SEC-MALS” came out at 2.
